The supplement of paper PMC9170038

Test system: MS2 coat protein
Assay: apparent KD of MS2 coat protein; designed switch direction (-1 OFF switch, 1 ON switch): 1; higher = weaker reporter binding
Outline: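 Apparent KD, taken as the median over clusters for each design, was obtained by curve-fitting normalised cluster fluorescence. Designed RNA switches had been transcribed on Illumina chips by stalled E. coli RNA polymerase and titrated with SNAP-549-labelled MS2 coat protein, doubling from 0.7 or 1.5 nM to 3 µM.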

[1] = input ligand: microRNA oligo, concentration not stated
[2] = Eterna round: R95, input ligand: FMN 200 uM
[3] = Eterna round: R95, input ligand: microRNA oligo, concentration not stated
[4] = Eterna round: R95, input ligand: none

Sequence | apparent KD of MS2 coat protein [1] [nM] | apparent KD of MS2 coat protein [2] [nM] | apparent KD of MS2 coat protein [3] [nM] | apparent KD of MS2 coat protein [4] [nM] | apparent KD of MS2 coat protein (input ligand: FMN 200 uM) [nM] | apparent KD of MS2 coat protein (input ligand: none) [nM]
UAGUGCGUUAGAGGAUAUUCUAAAUAAAAUAAUAAGACAUGAGGAUCACCCAUGUAUGUACAUGGGAAGAAGGCUGAUGUGCUA [Omei SS(NG)2 Bv2] (Eterna round: R96, puzzle: Same State NG 2) | 342 |  |  |  |  | 
GUACGUGCAACGUAGGAUAUCCACGACACGACAUGAGGAUCACCCAUGUCAAGGCUUAAAAGUCGGGAGAAGGGCGAACCACGGA [Xereenge] (puzzle: Same State 2) |  | 14.5 | 15.9 | 19.2 |  | 
AGGUUCGUGCUAGGAUAUCUAGGAUAUGGACGAGGAUUACCCGAGCAGGAUUACCGCACCAGAGGAGAGAAGGAGCAACAAGAG [pwkr ssNG2 2F5 2FMN.13] (Eterna round: R96, puzzle: Same State NG 2) | 5.01 |  |  |  | 0.959 | 420
GAUUCACAUGAGGAUCACCCAUGUCGUAAUAUGGGAGGAUAUACGUGGACCGUAGUCCGCGUAGAAGGCCUAAUUG [Mat - Same State 1 - Mod of JL - D25] (puzzle: Same State 1) |  |  | 148 |  |  | 
GGAAAGAGGUAAGGAUAUGCAUGGCUGGGACAUGAGGAUCACCCAUGUUGGAGAAGAAAUCUAGGGUAGAAGGUACAAGGAAGG [AK SSNG2-V2-10] (Eterna round: R96, puzzle: Same State NG 2) | 220 |  |  |  | 240 | 203
UUGCGGGCUUGAGGAUAUUGAGUACAUAUGUUUAACAUGAGGAUCACCCAUGUGGGUUGCGGUAUCGAGAAGGUAGCUUCCUGC [salish99_SSNG2_r04_812] (Eterna round: R96, puzzle: Same State NG 2) | 83.6 |  |  |  | 76.3 | 79.1
UUCACCUUUUUUUACAUGAGGAUCACCCAUGUUUACCCUACGUAGGAUAUCGAUGAAUGAUUGUACGAGAAGGACGUAGUAAGU [JR_SSND3_Sub057] (Eterna round: R96, puzzle: Same State NG 3) | 30.5 |  |  |  | 19.1 | 36.1
AAUUUAAUACAUGAGGAUCACCCAUGUAAAUUAAUUAAGAUCAAGGAUAUCAGCUCGUUUAGAGCUGAGAAGGUGAUCACAUGU [SSNG3/19-A3] (Eterna round: R96, puzzle: Same State NG 3) | 163 |  |  |  |  | 
UGGCUCAGACGAGGAUAUGGUCAUGGCGCUUCGGCGCAUACAUGAGGAUCACCCAUGUAGGGUGAUCAGAAGGUGUCUGAGCCA [SSNG2/9-B2] (Eterna round: R96, puzzle: Same State NG 2) | 827 |  |  |  | 210 | 1100
GUUAAGAACUAAGGAUAUUGAAUACAUAUGUUUAACAUGAGGAUCACCCAUGUGGGUUGCGGUGUCGAGAAGGUAGAAUAAUAG [Mat - same State NG 2 - JL mod - D98] (Eterna round: R96, puzzle: Same State NG 2) | 148 |  |  |  |  | 
UUAUAACAUGAGGAUCACCCAUGUCAACAAAGUCGAGGAUAUGGGCAAUUAUUAUAAGAACCAGAAGGCGAAUAUU [Mat - Same State 1 - Mod of UCT - D32] (puzzle: Same State 1) |  | 35.5 | 342 | 230 |  | 
AGCUAUUAAUCAGGAUAUGGUGACAUGAGGAUCACCCAUGUAUAGAUGAUUAAAUGUGGUCUAUACUAGAAGGGAUUACUAACA [SameState NG2 #53] (Eterna round: R96, puzzle: Same State NG 2) | 478 |  |  |  | 2210 | 626
AGCUAUUAAUCAGGAUAUAGUGACAUGAGGAUCACCCAUGUAUUGAUGAUGAAAUGUGGUCGCCGCUAGAAGGGAUUACUAACA [SameState NG2 #45] (Eterna round: R96, puzzle: Same State NG 2) | 27.7 |  |  |  | 75.1 | 34
UUAAUGAAGUAAGGAUAUACAUGAGGAUCACUCGUAGAAGGUACUAUACAUGAGGAUCACCCAUGUGCCGGUCAGAAGACUGGA [Mat - Same State NG 1 - JL mod - D5] (Eterna round: R96, puzzle: Same State NG 1) | 534 |  |  |  | 755 | 723
GCUGCAAUUAACGCCUACAUGAGGAUCACCCAUGUAUGUAGGCAGGAUAUCGUUUGCUUUGCAAACGAGAAGGGCCGUAGUAGC [JL SSNG3 1.12] (Eterna round: R96, puzzle: Same State NG 3) | 37.6 |  |  |  | 22.8 | 63.1
GCAGAACAUGAGGAUCACCCAUGUCUCUAAUAUCGAGGAUAUGGGCACGGUAUAUCCGAACCAGAAGGCGAACUGC [SS1 Teenbexe 15] (puzzle: Same State 1) |  |  | 244 |  |  | 

Sequence | apparent KD of MS2 coat protein [1] [nM] | apparent KD of MS2 coat protein [2] [nM] | apparent KD of MS2 coat protein [3] [nM] | apparent KD of MS2 coat protein [4] [nM] | apparent KD of MS2 coat protein (input ligand: FMN 200 uM) [nM] | apparent KD of MS2 coat protein (input ligand: none) [nM]
GCCGUAUAAACAUGAGGAUCACCCAUGUGCGCGAGAGCGGAUGAGGAUAUCGAUGGGUUUCCCGUCGAGAAGGCGUGGGUCGGC [JL SSNG3 3.97] (Eterna round: R96, puzzle: Same State NG 3) | 41.1 |  |  |  | 31 | 55.2
ACCCAAAGUAUAUGGGAACAGGCUUUUUAACAUGAGGAUCACCCAUGUACUCGUCUUAUAAGCAGUCGAAAGACUGC [Sensor 100 - 2] (puzzle: Sensor for hsa-mir-208a) |  | 487 | 18 | 906 |  | 
UUAUACUAGAGAGGAUAUGCAGAGGAUCACCCUGCAGAAGGCUCAUUAGAGAGGAUAUGCAGAGGAUCACCCUGCAGAAGGCUC [pwkr ssNG DX.21] (Eterna round: R96, puzzle: Same State NG 1) | 22.2 |  |  |  | 10.7 | 20.1
GAGUAGUUGGGAGGAUAUCCAUUGUUAUAGAAUGGAGAAGGUUUUAACAUGAGGAUCACCCAUGUAGGACUAUUCCUGUGUAUC [Parity 72 - Jieux - Same State NG 1] (Eterna round: R96, puzzle: Same State NG 1) | 12.2 |  |  |  | 13.5 | 16.8
GACAUUCUAUCUCAGGAUAUCAUGUCAAAGACAUGAGGAUCACCCAUGUACCAGGAAACUGGUUAUGAGAAGGGAGAUAGAAUGG [Mat - Same State 2 - Mod - D47] (puzzle: Same State 2) |  | 122 | 119 | 221 |  | 
AAGAAUCUAUCUCAGGAUAUCAUGUCAAAGACAUGAGGAUCACCCAUGUACCAGGAAACUGGUUAUGAGAAGGGAGAUAGAUUCA [Mat - Same State 2 - Mod - D31] (puzzle: Same State 2) |  | 98.6 | 118 | 79.6 |  | 
CAGCUCGUGUGAGGAUAUGCCGCCGUUUCGGCUGCAGAAGGUGCUACGUUACAUGAGGAUCACCCAUGUCUCUGUUGUUUCGUG [salish99_SSNG1_r04_963] (Eterna round: R96, puzzle: Same State NG 1) | 17.9 |  |  |  | 20.8 | 23.2
AAAAAACAUGAGGAUCACCCAUGUAAAAAAAUGGGAGGAUAUACAAAAACGAAAGUCAAAGUAGAAGGCCUGAAAA [same state 5] (Eterna round: R96, puzzle: Same State 1) | 78.6 |  |  |  |  | 
AGCACGGGAUUGGAGGAUAUGUUGUUUGCAACAUGAGGAUCACCCAUGUCUGAGGCUGAAAAGCAGCAGAAGGCCGAUACAACCA [SS2-1.2] (Eterna round: R96, puzzle: Same State 2) | 154 |  |  |  | 60.1 | 198
GGUCCAGCCUGAGCUGGACAAAAGCAUGUACAUGAGGAUCACCCAUGUCAUGUACAAGCUUUUUGCUCGUCUUAAAA [Mat - Sensor - JL mod - D87] (Eterna round: R96, puzzle: Sensor for hsa-mir-208a) | 14.2 |  |  |  | 586 | 573
AGAAAACAUGAGGAUCACCCAUGUAGAAAUAUGGGAGGAUAUACAAAGACGAAAGUCAAGGUAGAAGGCCUAAAGA [Mat - Same State 1 - Meechl mod - D124] (Eterna round: R96, puzzle: Same State 1) | 70.4 |  |  |  | 19.6 | 98.7
UGGCUGGUGCUAGGAUAUACAUGAGGAAUCCUCGUAGAAGGAUCACGACAUGAGGAUCACCCAUGUAGCCGUCCGUAGACGGCU [salish99_SSNG1_r04_006] (Eterna round: R96, puzzle: Same State NG 1) | 190 |  |  |  | 1930 | 312
UAGAAACAUGAGGAUCACCCAUGUGUCAAAGACAUAGGAUAUCGUAACCGGCGCCGAAUACGAGAAGGGUGGUAAA [Arares] (puzzle: Same State 1) |  | 183 | 74.9 | 166 |  | 
UAGUGCGUUAGAGGAUAUUCAAGGUGAAAAAAAAAUACAUGAGGAUCACCCAUGUAAAAACAUGAGGAGAAGGCUGAUGUGCUA [Omei SS(NG)2 A] (Eterna round: R96, puzzle: Same State NG 2) | 38 |  |  |  |  | 
GUGGUCAGACAUGAGGAUCACCCAUGUGGAAUAAAUAAGGGAGAGGAUAUUUAAUAUAGGAUAUAAAAGAAGGCUCGGUUGGUG (Eterna round: R96, puzzle: Same State NG 3) | 113 |  |  |  | 86.3 | 115
